# Reference: US20190185537A1 (AstraZeneca / MedImmune, published 2019)
# Values joined by “and” are separate entries in the source; they are usually repeats but may differ in a detail not shown here. Equal values may be shown once. Numbered stars: 1 amine (or outer) side, 2 acyl side, 3 side chain; on linkers, the order of the positions; unused ones are H or OH. Side chains are listed from the residue outwards. Ends that are not written are not given here. * marks the point of attachment. γGlu = O=C(O)[C@H](CCC(=O)[*:2])N[*:1]; Palmitoyl = CCCCCCCCCCCCCCCC(=O)*; Ahx = NCCCCCC(=O)O
# How the values were obtained:
# human GLP-1 receptor = human GLP-1 receptor (human, UniProt P43220 24-463); assay: cell-based or functional assay
# human GLP-1 receptor, sequence (P43220 24-463): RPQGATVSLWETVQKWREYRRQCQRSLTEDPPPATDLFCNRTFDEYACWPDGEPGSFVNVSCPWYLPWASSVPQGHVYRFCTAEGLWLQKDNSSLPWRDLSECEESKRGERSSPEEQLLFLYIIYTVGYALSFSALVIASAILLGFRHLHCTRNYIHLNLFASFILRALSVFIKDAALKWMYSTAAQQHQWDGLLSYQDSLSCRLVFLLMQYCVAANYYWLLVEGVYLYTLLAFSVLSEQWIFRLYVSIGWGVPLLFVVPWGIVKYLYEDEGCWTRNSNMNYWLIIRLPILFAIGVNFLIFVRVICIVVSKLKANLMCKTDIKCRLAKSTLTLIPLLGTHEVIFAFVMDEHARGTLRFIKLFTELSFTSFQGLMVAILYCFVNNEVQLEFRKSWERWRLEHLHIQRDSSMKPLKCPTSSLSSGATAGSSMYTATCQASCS
# human glucagon receptor = human glucagon receptor (human, UniProt P47871 26-477); assay: cell-based or functional assay
# human glucagon receptor, sequence (P47871 26-477): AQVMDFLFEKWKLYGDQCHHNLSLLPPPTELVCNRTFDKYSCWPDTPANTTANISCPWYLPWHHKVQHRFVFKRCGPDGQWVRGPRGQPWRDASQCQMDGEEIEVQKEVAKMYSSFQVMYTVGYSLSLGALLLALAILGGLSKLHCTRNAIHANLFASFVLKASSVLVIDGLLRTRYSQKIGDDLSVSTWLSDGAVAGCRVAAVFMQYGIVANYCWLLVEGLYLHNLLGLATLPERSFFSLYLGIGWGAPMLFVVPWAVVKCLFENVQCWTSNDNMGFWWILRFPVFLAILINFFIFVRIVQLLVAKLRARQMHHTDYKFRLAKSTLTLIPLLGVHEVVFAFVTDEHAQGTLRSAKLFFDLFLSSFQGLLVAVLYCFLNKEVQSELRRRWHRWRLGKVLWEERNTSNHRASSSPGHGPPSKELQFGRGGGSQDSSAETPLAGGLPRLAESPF
Binder,cAMP EC50 (assay 1) (human GLP-1 receptor),cAMP EC50 (assay 1) (human glucagon receptor)
HSQGTFTSDYSKYLDSRRAQDFVQWLVAGGGGGGK-NH2 [g325],0.0261 nM,0.0103 nM
HGEGTFTSDYSKYLDSK([γGlu-Palmitoyl])RAADFVAWLVAGG-NH2 (N-terminus assumed; SMILES CCCCCCCCCCCCCCCC(=O)N[C@@H](CCC(=O)NCCCC[C@H](NC(=O)[C@H](CO)NC(=O)[C@H](CC(=O)O)NC(=O)[C@H](CC(C)C)NC(=O)[C@H](Cc1ccc(O)cc1)NC(=O)[C@H](CCCCN)NC(=O)[C@H](CO)NC(=O)[C@H](Cc1ccc(O)cc1)NC(=O)[C@H](CC(=O)O)NC(=O)[C@H](CO)NC(=O)[C@@H](NC(=O)[C@H](Cc1ccccc1)NC(=O)[C@@H](NC(=O)CNC(=O)[C@H](CCC(=O)O)NC(=O)CNC(=O)[C@@H](N)Cc1c[nH]cn1)[C@@H](C)O)[C@@H](C)O)C(=O)N[C@@H](CCCNC(=N)N)C(=O)N[C@@H](C)C(=O)N[C@@H](C)C(=O)N[C@@H](CC(=O)O)C(=O)N[C@@H](Cc1ccccc1)C(=O)N[C@H](C(=O)N[C@@H](C)C(=O)N[C@@H](Cc1c[nH]c2ccccc12)C(=O)N[C@@H](CC(C)C)C(=O)N[C@H](C(=O)N[C@@H](C)C(=O)NCC(=O)NCC(N)=O)C(C)C)C(C)C)C(=O)O) [g737],0.0814 nM,734 nM
HSQGTFTSDYSKYLDSRRAQDFVQWLVAGGSGSGSG-NH2 [g402],0.0857 nM,0.0596 nM
HSQGTFTSDYSKYLDSRRAK([γGlu-Palmitoyl])DFVQWLEAGG-NH2 (N-terminus assumed; SMILES CCCCCCCCCCCCCCCC(=O)N[C@@H](CCC(=O)NCCCC[C@H](NC(=O)[C@H](C)NC(=O)[C@H](CCCNC(=N)N)NC(=O)[C@H](CCCNC(=N)N)NC(=O)[C@H](CO)NC(=O)[C@H](CC(=O)O)NC(=O)[C@H](CC(C)C)NC(=O)[C@H](Cc1ccc(O)cc1)NC(=O)[C@H](CCCCN)NC(=O)[C@H](CO)NC(=O)[C@H](Cc1ccc(O)cc1)NC(=O)[C@H](CC(=O)O)NC(=O)[C@H](CO)NC(=O)[C@@H](NC(=O)[C@H](Cc1ccccc1)NC(=O)[C@@H](NC(=O)CNC(=O)[C@H](CCC(N)=O)NC(=O)[C@H](CO)NC(=O)[C@@H](N)Cc1c[nH]cn1)[C@@H](C)O)[C@@H](C)O)C(=O)N[C@@H](CC(=O)O)C(=O)N[C@@H](Cc1ccccc1)C(=O)N[C@H](C(=O)N[C@@H](CCC(N)=O)C(=O)N[C@@H](Cc1c[nH]c2ccccc12)C(=O)N[C@@H](CC(C)C)C(=O)N[C@@H](CCC(=O)O)C(=O)N[C@@H](C)C(=O)NCC(=O)NCC(N)=O)C(C)C)C(=O)O) [g744],2.45 nM,0.0392 nM
HSQGTFTSDYSKYLDSRRAQDFVQWLVAGGSSGGSSK-NH2 [g317],2.63 nM,–
HSQGTFTSDYSKYLDSRRAQDFVK([γGlu-Palmitoyl])WLEAGG-NH2 (N-terminus assumed; SMILES CCCCCCCCCCCCCCCC(=O)N[C@@H](CCC(=O)NCCCC[C@H](NC(=O)[C@@H](NC(=O)[C@H](Cc1ccccc1)NC(=O)[C@H](CC(=O)O)NC(=O)[C@H](CCC(N)=O)NC(=O)[C@H](C)NC(=O)[C@H](CCCNC(=N)N)NC(=O)[C@H](CCCNC(=N)N)NC(=O)[C@H](CO)NC(=O)[C@H](CC(=O)O)NC(=O)[C@H](CC(C)C)NC(=O)[C@H](Cc1ccc(O)cc1)NC(=O)[C@H](CCCCN)NC(=O)[C@H](CO)NC(=O)[C@H](Cc1ccc(O)cc1)NC(=O)[C@H](CC(=O)O)NC(=O)[C@H](CO)NC(=O)[C@@H](NC(=O)[C@H](Cc1ccccc1)NC(=O)[C@@H](NC(=O)CNC(=O)[C@H](CCC(N)=O)NC(=O)[C@H](CO)NC(=O)[C@@H](N)Cc1c[nH]cn1)[C@@H](C)O)[C@@H](C)O)C(C)C)C(=O)N[C@@H](Cc1c[nH]c2ccccc12)C(=O)N[C@@H](CC(C)C)C(=O)N[C@@H](CCC(=O)O)C(=O)N[C@@H](C)C(=O)NCC(=O)NCC(N)=O)C(=O)O) [g746],11.5 nM,0.0354 nM

# Continued, values first:
cAMP EC50 (assay 1) (human GLP-1 receptor),cAMP EC50 (assay 1) (human glucagon receptor),Binder
0.0534 nM,0.352 nM,HGQGTFTSDYSRYLDSK([γGlu-Palmitoyl])RARDFVEWLVAGG-NH2 (N-terminus assumed; SMILES CCCCCCCCCCCCCCCC(=O)N[C@@H](CCC(=O)NCCCC[C@H](NC(=O)[C@H](CO)NC(=O)[C@H](CC(=O)O)NC(=O)[C@H](CC(C)C)NC(=O)[C@H](Cc1ccc(O)cc1)NC(=O)[C@H](CCCNC(=N)N)NC(=O)[C@H](CO)NC(=O)[C@H](Cc1ccc(O)cc1)NC(=O)[C@H](CC(=O)O)NC(=O)[C@H](CO)NC(=O)[C@@H](NC(=O)[C@H](Cc1ccccc1)NC(=O)[C@@H](NC(=O)CNC(=O)[C@H](CCC(N)=O)NC(=O)CNC(=O)[C@@H](N)Cc1c[nH]cn1)[C@@H](C)O)[C@@H](C)O)C(=O)N[C@@H](CCCNC(=N)N)C(=O)N[C@@H](C)C(=O)N[C@@H](CCCNC(=N)N)C(=O)N[C@@H](CC(=O)O)C(=O)N[C@@H](Cc1ccccc1)C(=O)N[C@H](C(=O)N[C@@H](CCC(=O)O)C(=O)N[C@@H](Cc1c[nH]c2ccccc12)C(=O)N[C@@H](CC(C)C)C(=O)N[C@H](C(=O)N[C@@H](C)C(=O)NCC(=O)NCC(N)=O)C(C)C)C(C)C)C(=O)O) [g720]
6.65 nM,0.0436 nM,HSQGTFTSDYSKYLDSERAK([Ahx-Palmitoyl])DFVAWLERGG-NH2 (not fully specified) [g787]
7.4 nM,3.83 nM,HGQGTFTSDYSK([γGlu-Palmitoyl])YLDSERAQDFVQWLERGG-NH2 (N-terminus assumed; SMILES CCCCCCCCCCCCCCCC(=O)N[C@@H](CCC(=O)NCCCC[C@H](NC(=O)[C@H](CO)NC(=O)[C@H](Cc1ccc(O)cc1)NC(=O)[C@H](CC(=O)O)NC(=O)[C@H](CO)NC(=O)[C@@H](NC(=O)[C@H](Cc1ccccc1)NC(=O)[C@@H](NC(=O)CNC(=O)[C@H](CCC(N)=O)NC(=O)CNC(=O)[C@@H](N)Cc1c[nH]cn1)[C@@H](C)O)[C@@H](C)O)C(=O)N[C@@H](Cc1ccc(O)cc1)C(=O)N[C@@H](CC(C)C)C(=O)N[C@@H](CC(=O)O)C(=O)N[C@@H](CO)C(=O)N[C@@H](CCC(=O)O)C(=O)N[C@@H](CCCNC(=N)N)C(=O)N[C@@H](C)C(=O)N[C@@H](CCC(N)=O)C(=O)N[C@@H](CC(=O)O)C(=O)N[C@@H](Cc1ccccc1)C(=O)N[C@H](C(=O)N[C@@H](CCC(N)=O)C(=O)N[C@@H](Cc1c[nH]c2ccccc12)C(=O)N[C@@H](CC(C)C)C(=O)N[C@@H](CCC(=O)O)C(=O)N[C@@H](CCCNC(=N)N)C(=O)NCC(=O)NCC(N)=O)C(C)C)C(=O)O) [g701]
1.14 nM,9.04 nM,HSQGTFTSDYSKYLDSRRAQDFVQWLVAGGSSGGSSK(Palmitoyl)-NH2 (N-terminus assumed; SMILES CCCCCCCCCCCCCCCC(=O)NCCCC[C@H](NC(=O)[C@H](CO)NC(=O)[C@H](CO)NC(=O)CNC(=O)CNC(=O)[C@H](CO)NC(=O)[C@H](CO)NC(=O)CNC(=O)CNC(=O)[C@H](C)NC(=O)[C@@H](NC(=O)[C@H](CC(C)C)NC(=O)[C@H](Cc1c[nH]c2ccccc12)NC(=O)[C@H](CCC(N)=O)NC(=O)[C@@H](NC(=O)[C@H](Cc1ccccc1)NC(=O)[C@H](CC(=O)O)NC(=O)[C@H](CCC(N)=O)NC(=O)[C@H](C)NC(=O)[C@H](CCCNC(=N)N)NC(=O)[C@H](CCCNC(=N)N)NC(=O)[C@H](CO)NC(=O)[C@H](CC(=O)O)NC(=O)[C@H](CC(C)C)NC(=O)[C@H](Cc1ccc(O)cc1)NC(=O)[C@H](CCCCN)NC(=O)[C@H](CO)NC(=O)[C@H](Cc1ccc(O)cc1)NC(=O)[C@H](CC(=O)O)NC(=O)[C@H](CO)NC(=O)[C@@H](NC(=O)[C@H](Cc1ccccc1)NC(=O)[C@@H](NC(=O)CNC(=O)[C@H](CCC(N)=O)NC(=O)[C@H](CO)NC(=O)[C@@H](N)Cc1c[nH]cn1)[C@@H](C)O)[C@@H](C)O)C(C)C)C(C)C)C(N)=O) [g318]
0.0854 nM,0.919 nM and 0.92 nM,HGQGTFTSDYSKYLDSK([γGlu-Palmitoyl])RAADFVAWLVAGG-NH2 (N-terminus assumed; SMILES CCCCCCCCCCCCCCCC(=O)N[C@@H](CCC(=O)NCCCC[C@H](NC(=O)[C@H](CO)NC(=O)[C@H](CC(=O)O)NC(=O)[C@H](CC(C)C)NC(=O)[C@H](Cc1ccc(O)cc1)NC(=O)[C@H](CCCCN)NC(=O)[C@H](CO)NC(=O)[C@H](Cc1ccc(O)cc1)NC(=O)[C@H](CC(=O)O)NC(=O)[C@H](CO)NC(=O)[C@@H](NC(=O)[C@H](Cc1ccccc1)NC(=O)[C@@H](NC(=O)CNC(=O)[C@H](CCC(N)=O)NC(=O)CNC(=O)[C@@H](N)Cc1c[nH]cn1)[C@@H](C)O)[C@@H](C)O)C(=O)N[C@@H](CCCNC(=N)N)C(=O)N[C@@H](C)C(=O)N[C@@H](C)C(=O)N[C@@H](CC(=O)O)C(=O)N[C@@H](Cc1ccccc1)C(=O)N[C@H](C(=O)N[C@@H](C)C(=O)N[C@@H](Cc1c[nH]c2ccccc12)C(=O)N[C@@H](CC(C)C)C(=O)N[C@H](C(=O)N[C@@H](C)C(=O)NCC(=O)NCC(N)=O)C(C)C)C(C)C)C(=O)O) [g736]
